Measurements from the supplement of paper PMC12042874.
± gives the uncertainty stated by the source.

Test: amyloid nucleation score (Sup35N fusion, yeast selection) (log enrichment); library NNK3; higher = more nucleation; inactive = no reads after selection
Summary of the method: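 In psi-negative yeast, Sup35N fusions carrying peptides of 20 random codons were induced with 100 μM copper sulfate for 24 hours. The cells then grew 7 days at 30°C on medium lacking adenine and uracil, and plasmid inserts from input and output were Illumina-sequenced, excluding sequences with under 100 input reads. Nucleation score is the DiMSum log enrichment of output over input reads, centred on the mode score of non-aggregating sequences.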

Substance | amyloid nucleation score
LQHFVR | inactive
LQISSMIFELYIFDLMMVM | inactive
LQKCNWRRMVGRNQCWGKAR | 0.89 ± 0.19
LQLLENQSNAIYWHGGNESD | inactive
LQLLRIGHWMLPCCWRILLV | inactive
LQPCKNMSTLSQNPTLRCPF | inactive
LQPGMDFSCRFKRLTLNMVH | -0.38 ± 0.88
LQSCSCAGLFPDL | inactive
LQSYRDLQTRFFLFSAHTSL | inactive
LQTVNLLVPACI | inactive
LRATNRGVMLNRFVSTMDKS | inactive
LRCVGGSGSEGLVLSRMVTG | inactive
LRDFRKVSPAKVIDNRFQTD | 0.827 ± 0.17
LREHWEELVLGFWFPKVCCF | inactive
LREKND | inactive
LREMGLHYWGD | inactive
LRGTMGEV | inactive
LRIGNVVCLKLSFSFNRYLW | 0.352 ± 0.75
LRLCGAMPDRCLW | inactive
LRLGRTVLYPIVLWLPYCFD | inactive
LRLVKYNAGIHYGSVGPQFL | inactive
LRMWERMCAVSL | inactive

Substance | amyloid nucleation score
LRRRSLDHKSGSYLVTG | inactive
LRRYALLVNAAQKEMRYSSS | -0.616 ± 1.1
LRSFGYRRQ | inactive
LRSKECIKMALKWLCKKYYW | inactive
LRSLYSTINFKMCWICEAAS | inactive
LRSRKWSSTVSCEYSANGLR | inactive
LRTLALPSSVFVRDVHYY | 0.987 ± 0.15
LRYSVEAFTRDDLTESSQVV | inactive
LSCNDYNDG | inactive
LSDCRSWVPCGRHCSF | inactive
LSDFMLVAILTV | inactive
LSELVLSWMQMDSCTRFDMC | inactive
LSEVRLRRQLLVGACDGGYN | inactive
LSGPRYLVVKSGCACRDSFR | inactive
LSGYYEQVVWVNRSSNSTMN | inactive
LSIDMSLYLCSTFYFK | 2.31 ± 0.06
LSIYGDPAYCALFAYECLWL | 1.93 ± 0.06
LSIYYEFFLSETNFCYMLRC | 0.766 ± 0.15
LSKNSEILIYAYVLETFSCS | inactive
LSKPFPSMHFSRRWNRNGLW | inactive
LSLHEGWSVNCVFCLLLTVW | 2.42 ± 0.077
LSLTRNSH | inactive

Substance | amyloid nucleation score
LSLTYVSPHA | 0.968 ± 0.17
LSLVCNCRSTCNCPGLSL | inactive
LSLYPFMWKYIIGAGKWLFL | inactive
LSMDLPNQSLDKVSKRHSAN | inactive
LSMFGGNASALL | inactive
LSNGDAKTSRTASVRCLRYA | inactive
LSRDGVFVPPTSRSYHPRLK | inactive
LSSCMWDGPFFNCRVMKLSG | inactive
LSSWEIVSSLSHWNVYVIAR | inactive
LSVRSTLARLPSGVIMMRSM | inactive
LSYFYKVPLDTAYMW | 1.07 ± 0.12
LSYNTVDVWPLAFNFWWMIS | 0.199 ± 0.44
LTCSWIICLSMSYLTSRYNR | 1.83 ± 0.1
LTELSETVPVVKRWKCLDYF | -0.807 ± 1.9
LTFLVRDCCTCSICNDGPSR | 3.08 ± 0.079
LTFVHNWFDPLCLHRNSAMN | inactive
LTGACVLNR | 0.106 ± 1
LTGLEMLYYTCFNVCTRKCV | inactive
LTHPCLMPFMLVVTRLYMAA | -1.03 ± 1.8
LTIRPFEVGRESESGFVLIS | inactive
